Consider two proteins from US20110294137A1 (MEDICAL RESEARCH COUNCIL, published 2011).

In one data set the target is T1, Rv1827, P9WJA9.
T1 chain: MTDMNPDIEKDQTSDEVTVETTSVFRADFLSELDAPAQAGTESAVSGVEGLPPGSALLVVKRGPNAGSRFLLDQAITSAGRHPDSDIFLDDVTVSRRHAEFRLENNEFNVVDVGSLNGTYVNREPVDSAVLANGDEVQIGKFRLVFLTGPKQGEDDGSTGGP

Data set [1] concerns the molecule itself. Put plainly: right angle light scattering at 340 nm, self-polymerisation, 4 mM ATP.

B1: PknB kinase domain (PknB 1-279) (protein)
chain: MTTPSHLSDRYELGEILGFGGMSEVHLARDLRLHRDVAVKVLRADLARDPSFYLRFRREAQNAAALNHPAIVAVYDTGEAETPAGPLPYIVMEYVDGVTLRDIVHTEGPMTPKRAIEVIADACQALNFSHQNGIIHRDVKPANIMISATNAVKVMDFGIARAIADSGNSVTQTAAVIGTAQYLSPEQARGDSVDARSDVYSLGCVLYEVLTGEPPFTGDSPVSVAYQHVREDPIPPSARHEGLSADLDAVVLKALAKNPENRYQTAAEMRADLVRVHNG
For the protein B1, in the data set with Rv1827, P9WJA9, the KM entry is listed as “KM, 20 µM”; the “KM value (Michaelis-Menten, initial rate against Rv1827 concentration)” value is given as “a KM value of 22 µM”; the kcat result is listed as “kcat 4.7 min^-1”; the “kcat (300 µM Rv1827, ATP varied)” value is “kcat, 4.9 min^-1”. In the data set with Rv1827, P9WJA9, the maximal rate entry was “a maximal rate of 1.2 µM min^-1” and the specific activity result is reported as “the specific activity of the PknB kinase domain was calculated for 40 µM ATP as 5.9 s^-1”.

B2: wild-type ParM (other)
chain: MLVFIDDGSTNIKLQWQESDGTIKQHISPNSFKREWAVSFGDKKVFNYTLNGEQYSFDPISPDAVVTTNIAWQYSDVNVVAVHHALLTSGLPVSEVDIVCTLPLTEYYDRNNQPNTENIERKKANFRKKITLNGGDTFTIKDVKVMPESIPAGYEVLQELDELDSLLIIDLGGTTLDISQVMGKLSGISKIYGDSSLGVSLVTSAVKDALSLARTKGSSYLADDIIIHRKDNNYLKQRINDENKISIVTEAMNEALRKLEQRVLNTLNEFSGYTHVMVIGGGAELICDAVKKHTQIRDERFFKTNNSQYDLVNGMYLIGN
notes: Unlabelled, without His6 tag (plasmid pJSC1); also called ParM wild-type
In the case of B2, the “critical concentration (filament formation, in presence of ATP)” value in data set [1] is 2.5 µM.
